Molecular target: T1, GST C-terminal (Myo9a amino acids 2330-2626 fused to GST) (rat, UniProt Q9Z1N3 2330-2626)
T1 construct: Myosin IXa (Myo9a), rat, NCBI AJ001713, amino acids 2330-2626 (C-terminus); Cloned into pGEX-4T1; also called Myo9a GST C-term; Myo9a C-terminus; source: E. coli BL21, purified, immobilized on glutathione-Sepharose 4B beads
T1 sequence (looked up): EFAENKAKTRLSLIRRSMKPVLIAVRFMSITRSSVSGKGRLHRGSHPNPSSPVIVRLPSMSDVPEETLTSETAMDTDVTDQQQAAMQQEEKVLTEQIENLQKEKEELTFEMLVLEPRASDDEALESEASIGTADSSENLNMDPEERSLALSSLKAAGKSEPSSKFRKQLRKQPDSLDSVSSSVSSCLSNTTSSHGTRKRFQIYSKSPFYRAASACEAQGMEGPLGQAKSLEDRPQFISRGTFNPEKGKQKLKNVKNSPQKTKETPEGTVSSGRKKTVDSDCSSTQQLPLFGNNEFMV
Assay: pull-down; purified GluA2 C-term (released from GST by thrombin, in PBS) incubated with glutathione Sepharose 4B-coupled GST or GST C-term from Myo9a; immunoblot
Settings: both partners purified

B1: GluA2 C-term (GluA2 intracellular C-terminal tail, amino acids 834-883, released from GST by thrombin) (domain or fragment, rat, UniProt P19491 834-883, looked up)
chain: EFCYKSRAEAKRMKVAKNPQNINPSSSQNSQNFATYKEGYNVYGIESVKI
notes: AMPA receptor subunit GluA2, rat, NCBI M85035, intracellular C-terminal tail, amino acids 834-883; Cloned into pGEX-4T1; also called purified GluA2 C-terminus; GluA2 C-terminal tail; source: E. coli BL21, purified with glutathione-Sepharose 4B resin, released by thrombin
  binding result: binds

Source: paper PMC4719083, “Myosin IXa Binds AMPAR and Regulates Synaptic Structure, LTP, and Cognitive Function” (Frontiers in Molecular Neuroscience, 2016)
